B1: 13G5^IgG1 (13G5 variable regions on mouse IgG1/κ constant regions) (antibody, V domains shown)
VH: EVKLVESGGGLVQPGGSLKLSCATSGFTFSDYYMYWVRQTPEKRLEWVAYISNGGGSTYYPDTVKGRFTISRDNAKNTLYLQMSRLKSEDTAMYYCARHVYYGRNYAMDYWGQGTSVTVSS
VL: DIQMTQTTSSLSASLGDRVTISCRASQDISNYLNWYQQKPDGTVKLLIYYTSRLHSGVPSRFSGSGSGTDYSLTISNLEQEDIATYFCQQGNTLPYTFGGGTKLEIK
B2: 13G5 (mouse monoclonal antibody, IgG2b/κ) (antibody, V domains shown)
VH: B1 VH
VL: B1 VL
notes: VH of 13G5; constant region of the mouse IgG2b heavy chain; VL of 13G5; constant region of the mouse κ light chain; IgG2b/κ; also called anti-PTPRS Ab 13G5; source: production contracted to Viva Biotech
B3: 22H8^IgG2b (22H8 variable regions on mouse IgG2b/κ constant regions) (antibody, V domains shown)
VH: QVQLQQSGAELARPGASVKLSCKASGYTFTSYWMQWVKQRPGQGLEWIGAIYPGDGDTRYTQKFKGKATLTADKSSSTAYMQLSSLASEDSAVYYCARRIYYGYYYAMDYWGQGTSVTVSS
VL: DIVLTQSPASLAVSLGQRATISCKASQSVDYDGDSYMNWYQQKPGQPPKLLIYAASNLESGIPARFSGSGSGTDFTLNIHPVEEEDAATYYCQQSNEDPLTFGAGTKLELK
notes: as the VH of m3 (22H8); constant region of the mouse IgG2b heavy chain (entire constant region swapped); as the VL of m3 (22H8); constant region of the mouse κ light chain; IgG2b/κ form of 22H8; source: production contracted to Viva Biotech
B4: 13G5^HL-scFv-Fc (VH-linker-VL scFv of 13G5 fused to human IgG1 Fc) (scFv, V domains shown)
VH: B1 VH
VL: B1 VL
B5: 22H8 (mouse monoclonal antibody, IgG1/κ) (antibody, V domains shown)
VH: B3 VH
VL: B3 VL
notes: VH of 22H8; constant region of the mouse IgG1 heavy chain; VL of 22H8; constant region of the mouse κ light chain; IgG1/κ; source: production contracted to Viva Biotech
B6: 22H8^HL-scFv-Fc (VH-linker-VL scFv of 22H8 fused to human IgG1 Fc) (scFv, V domains shown)
VH: B3 VH
VL: B3 VL
notes: as the VH of m3 (22H8); linker between VH and VL; as the VL of m3 (22H8); ORF synthesized by Genscript and subcloned into pHLsec as a C-terminal hFc fusion; also called 22H8-Fc HL; source: HEK293T, transiently transfected, supernatant; purified (Protein A); not shown: Fc (human IgG1), C-terminal, kept
B7: 49F2 (mouse monoclonal antibody, IgG1/κ) (antibody, V domains shown)
VH: EVQLVESGGDLVKPGGSLKLSCAASGFIFSSYGMSWVRQTPDKRLEWVATISSGGSDTYYPDSVKGRFTISRDNANNTLYLQMSSLKSEDTAMYYCARQVYYGLYWYFDVWGAGTTVTVSS
VL: DIVMTQSHKFMSTSVGDRVSIICKASQDVNTAVAWYQQKPGQSPKLLIYSASYRYTGVPDRFTGSGSGTDFTFTISSVQAEDLAIYYCQQHYSTPYTFGGGTKLEIK
notes: VH of 49F2; constant region of the mouse IgG1 heavy chain; VL of 49F2; constant region of the mouse κ light chain; IgG1/κ; source: production contracted to Viva Biotech

What was measured:
[1] = biological target: T1, C-terminally 6xHis tagged mouse PTPRS (mPTPRS) ECD (mouse, UniProt B0V2N1 30-1257); test: BLI
T1 chain: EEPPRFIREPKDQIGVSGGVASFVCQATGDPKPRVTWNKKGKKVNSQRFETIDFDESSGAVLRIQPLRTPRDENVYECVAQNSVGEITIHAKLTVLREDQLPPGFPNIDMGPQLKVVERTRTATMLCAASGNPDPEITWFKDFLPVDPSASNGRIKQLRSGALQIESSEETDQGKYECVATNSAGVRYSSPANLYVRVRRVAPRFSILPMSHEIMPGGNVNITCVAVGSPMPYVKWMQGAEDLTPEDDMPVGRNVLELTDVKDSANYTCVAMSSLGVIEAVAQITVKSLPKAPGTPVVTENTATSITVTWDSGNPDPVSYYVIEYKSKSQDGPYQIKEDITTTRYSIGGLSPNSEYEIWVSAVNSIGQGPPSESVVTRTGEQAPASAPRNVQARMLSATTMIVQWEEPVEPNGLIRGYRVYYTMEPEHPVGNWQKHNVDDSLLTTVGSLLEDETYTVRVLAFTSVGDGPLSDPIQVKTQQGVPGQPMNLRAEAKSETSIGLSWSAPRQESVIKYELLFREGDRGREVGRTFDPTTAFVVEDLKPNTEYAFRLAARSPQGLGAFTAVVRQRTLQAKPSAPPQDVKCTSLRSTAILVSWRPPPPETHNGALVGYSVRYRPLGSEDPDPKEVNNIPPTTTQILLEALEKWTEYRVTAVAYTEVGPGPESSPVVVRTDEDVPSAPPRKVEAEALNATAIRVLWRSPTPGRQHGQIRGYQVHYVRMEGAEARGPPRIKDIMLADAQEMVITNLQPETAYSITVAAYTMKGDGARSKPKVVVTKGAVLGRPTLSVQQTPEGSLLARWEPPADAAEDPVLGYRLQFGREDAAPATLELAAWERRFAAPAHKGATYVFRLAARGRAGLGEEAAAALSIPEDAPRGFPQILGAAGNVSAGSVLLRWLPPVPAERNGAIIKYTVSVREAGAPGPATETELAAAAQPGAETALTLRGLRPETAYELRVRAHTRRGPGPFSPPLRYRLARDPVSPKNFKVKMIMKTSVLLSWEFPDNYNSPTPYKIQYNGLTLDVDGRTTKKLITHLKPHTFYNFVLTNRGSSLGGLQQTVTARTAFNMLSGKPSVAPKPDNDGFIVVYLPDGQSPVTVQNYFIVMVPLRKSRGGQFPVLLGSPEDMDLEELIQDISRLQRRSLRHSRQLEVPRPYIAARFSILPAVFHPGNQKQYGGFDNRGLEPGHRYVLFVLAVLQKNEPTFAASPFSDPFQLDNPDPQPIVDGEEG

[2] = biological target: T1, C-terminally 6xHis tagged mouse PTPRS …; test: BLI
[3] = biological target: T1, C-terminally 6xHis tagged mouse PTPRS …; test: SPR
[4] = biological target: T2, PTPRS^Δ326 (hPTPRS-HA N-terminal truncation lacking Ig-like domains 1 to 3) (Homo sapiens, UniProt Q13332, point mutant); test: co-IP; RIPA lysates of HEK293T cells overexpressing HA-tagged full length or truncated hPTPRS incubated with the antibody for 2 h at 4 °C, Protein G Sepharose, anti-HA blot; settings: one partner purified
T2 construct: human PTPRS isoform 1, N-terminal truncation lacking Ig-like domains 1 to 3, obtained from WT hPTPRS-HA by site-directed mutagenesis; source: HEK293T, transfected, in RIPA lysate; not shown: HA, C-terminal, kept

[5] = biological target: T3, PTPRS^Δ1096 (hPTPRS-HA N-terminal truncation lacking the ECD including most of Fn8) (Homo sapiens, UniProt Q13332, point mutant); test: as above; settings: one partner purified
T3 construct: human PTPRS isoform 1, N-terminal truncation lacking the ECD including most of Fn8, obtained from WT hPTPRS-HA by site-directed mutagenesis; source: HEK293T, transfected, in RIPA lysate; not shown: HA, C-terminal, kept

[6] = biological target: T4, WT human PTPRS (hPTPRS) isoform 1 with a C-terminal HA tag (human, UniProt Q13332); test: flow cytometry on cells; HEK293T cells transfected with hPTPRS-HA (WT or Fn9mut) or empty vector, incubated 1 h with the antibody, AF568-labelled anti-mouse IgG; settings: one partner purified
T4 construct: human PTPRS isoform 1, open reading frame in pcDNA3.1 (+); also called PTPRS-HA; hPTPRS-HA; source: HEK293T, transfected; in RIPA lysate (immunoprecipitation), on or in cells (flow cytometry, PLA); not shown: HA, C-terminal, kept

[7] = biological target: T5, C-terminally 6xHis tagged mouse PTPRS (mPTPRS) ECD (Mus musculus, UniProt B0V2N1); test: BLI; His-tagged ligand (mPTPRS ECD or hPTPRS Fn9) immobilised on anti-6xHis probes at 100 to 200 nM; antibodies or scFv-Fc fusions as analytes; Gator K buffer (0.02% BSA, 0.002% Tween-20 in PBS, pH 7.4), 37 °C; biphasic (2:1) association model; settings: both partners purified
T5 construct: also called mPTPRS ectodomain; PTPRS ectodomain; source: HEK293T, transiently transfected, supernatant; purified (Ni-NTA, HiTrap heparin); not shown: His6, C-terminal, kept

[8] = biological target: T5, C-terminally 6xHis tagged mouse PTPRS …; test: SPR; Octet SF3; anti-PTPRS Ab immobilised by amine coupling on a PCH sensor chip; analyte mPTPRS ECD 2500 nM to 9.77 nM; 1x PBS with 0.005% Tween-20; multi-cycle kinetics; settings: both partners purified
[9] = biological target: T6, 6xHis-tagged hPTPRS Fn9 (residues 1117-1270) (human, UniProt Q13332 1117-1270); test: BLI
T6 chain: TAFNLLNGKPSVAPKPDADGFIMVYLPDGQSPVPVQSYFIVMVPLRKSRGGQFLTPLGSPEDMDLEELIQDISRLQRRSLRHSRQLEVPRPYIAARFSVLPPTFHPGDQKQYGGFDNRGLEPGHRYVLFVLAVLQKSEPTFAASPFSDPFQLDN

[10] = biological target: T6, 6xHis-tagged hPTPRS Fn9 (residues …); test: BLI
[11] = biological target: T1, C-terminally 6xHis tagged mouse PTPRS …; test: BLI
[12] = biological target: T4, WT human PTPRS (hPTPRS) isoform 1 with …; test: co-IP; RIPA lysates of HEK293T cells overexpressing HA-tagged full length or truncated hPTPRS incubated with the antibody for 2 h at 4 °C, Protein G Sepharose, anti-HA blot; settings: one partner purified
[13] = biological target: T7, 6xHis-tagged hPTPRS Fn9 (residues 1117-1270) (Homo sapiens, UniProt Q13332); test: BLI; His-tagged ligand (mPTPRS ECD or hPTPRS Fn9) immobilised on anti-6xHis probes at 100 to 200 nM; antibodies or scFv-Fc fusions as analytes; Gator K buffer (0.02% BSA, 0.002% Tween-20 in PBS, pH 7.4), 37 °C; biphasic (2:1) association model; settings: both partners purified
T7 construct: human PTPRS isoform 1 (Q13332), fibronectin type III-like domain 9, residues 1117-1270, amplified from WT hPTPRS and subcloned into pHLsec; the printed primers encode a start at TAFNLLN and an end at PFQLDN (translated from the primers); also called hPTPRS Fn9His; Fn9 fragment of PTPRS; source: HEK293T, transiently transfected, supernatant

[14] = biological target: T4, WT human PTPRS (hPTPRS) isoform 1 with …; test: proximity ligation; purified antibody, scFv-Fc or Fc decoy added for 30 min to the co-transfected HEK293T cells before the PLA; read-out is the loss of the PLA signal of the tagged pair; settings: one partner purified

T4 sequence (Q13332 30-1948): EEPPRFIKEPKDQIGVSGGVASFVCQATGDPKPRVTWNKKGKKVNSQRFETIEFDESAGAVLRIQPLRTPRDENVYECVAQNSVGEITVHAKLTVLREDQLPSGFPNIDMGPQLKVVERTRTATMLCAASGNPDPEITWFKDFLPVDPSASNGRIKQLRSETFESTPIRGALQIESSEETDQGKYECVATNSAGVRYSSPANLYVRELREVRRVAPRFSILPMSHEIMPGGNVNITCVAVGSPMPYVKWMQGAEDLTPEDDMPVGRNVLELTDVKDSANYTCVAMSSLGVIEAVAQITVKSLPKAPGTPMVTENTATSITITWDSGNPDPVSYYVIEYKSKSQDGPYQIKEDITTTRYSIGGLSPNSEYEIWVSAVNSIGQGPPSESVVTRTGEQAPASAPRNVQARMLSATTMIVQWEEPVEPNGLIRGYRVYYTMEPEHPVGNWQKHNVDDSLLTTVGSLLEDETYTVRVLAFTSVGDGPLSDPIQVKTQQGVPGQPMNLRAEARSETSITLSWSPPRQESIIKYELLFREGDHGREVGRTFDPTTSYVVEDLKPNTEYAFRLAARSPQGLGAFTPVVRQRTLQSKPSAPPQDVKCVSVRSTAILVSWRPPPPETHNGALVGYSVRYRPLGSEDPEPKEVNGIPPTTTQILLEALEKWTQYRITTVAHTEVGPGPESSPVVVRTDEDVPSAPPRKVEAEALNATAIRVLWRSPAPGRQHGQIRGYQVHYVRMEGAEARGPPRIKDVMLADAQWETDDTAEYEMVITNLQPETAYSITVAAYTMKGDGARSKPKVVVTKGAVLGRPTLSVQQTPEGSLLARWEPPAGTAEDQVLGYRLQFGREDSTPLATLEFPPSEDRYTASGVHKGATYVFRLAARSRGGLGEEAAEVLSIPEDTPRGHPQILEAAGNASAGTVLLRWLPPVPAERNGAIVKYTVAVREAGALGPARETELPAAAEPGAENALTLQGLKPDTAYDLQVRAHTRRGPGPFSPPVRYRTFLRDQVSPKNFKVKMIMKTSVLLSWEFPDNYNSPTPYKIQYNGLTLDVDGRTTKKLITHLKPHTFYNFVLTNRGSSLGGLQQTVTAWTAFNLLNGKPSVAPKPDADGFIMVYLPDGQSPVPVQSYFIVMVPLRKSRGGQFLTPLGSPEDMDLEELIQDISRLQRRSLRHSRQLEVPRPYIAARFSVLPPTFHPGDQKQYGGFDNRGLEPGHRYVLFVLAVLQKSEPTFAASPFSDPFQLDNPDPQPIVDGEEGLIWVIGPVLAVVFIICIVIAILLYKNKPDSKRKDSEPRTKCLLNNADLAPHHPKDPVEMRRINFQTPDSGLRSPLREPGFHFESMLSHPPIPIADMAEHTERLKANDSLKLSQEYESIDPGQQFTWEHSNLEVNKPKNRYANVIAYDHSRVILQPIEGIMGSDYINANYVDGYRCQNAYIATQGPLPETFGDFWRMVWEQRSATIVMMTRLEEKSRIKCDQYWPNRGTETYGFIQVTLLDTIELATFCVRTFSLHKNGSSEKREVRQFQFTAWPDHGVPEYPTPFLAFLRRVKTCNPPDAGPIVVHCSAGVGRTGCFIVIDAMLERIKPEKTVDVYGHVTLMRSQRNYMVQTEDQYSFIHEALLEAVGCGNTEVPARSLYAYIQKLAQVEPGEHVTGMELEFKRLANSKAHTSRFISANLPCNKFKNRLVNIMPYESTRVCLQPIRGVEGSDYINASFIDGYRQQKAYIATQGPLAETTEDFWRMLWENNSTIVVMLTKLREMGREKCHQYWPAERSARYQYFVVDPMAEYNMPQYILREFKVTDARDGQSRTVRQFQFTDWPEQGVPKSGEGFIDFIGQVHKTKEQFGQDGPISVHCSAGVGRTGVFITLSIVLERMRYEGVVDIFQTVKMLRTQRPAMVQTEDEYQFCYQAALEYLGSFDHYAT

Binder | binding result [4] | binding result [5] | Kd [7] | Kd [9] | koff [10] | koff [11] | further results
B1 |  |  |  |  |  |  | koff [1]: 0.003 s⁻¹; Kd [2]: 16.5 nM
B2 | binds | binds | 122 ± 1.9 nM | 6.03 nM | 0.003 s⁻¹ | 0.083 s⁻¹ | koff [3]: 0.00079 s⁻¹; mean fluorescence relative to 22H8 [6]: ~2 fold; Kd [8]: 95 nM
B3 |  |  | 38.2 nM |  |  |  | koff [1]: 0.06 s⁻¹
B4 |  |  |  | 0.28 nM | 0.00016 s⁻¹ |  | 
B5 | binds | binds | 13.2 ± 3.74 nM | 17.6 nM | 0.009 s⁻¹ | 0.002 s⁻¹ | binding result [12]: binds; binding result [13]: binds
B6 |  |  |  | 2.65 nM | 0.0056 s⁻¹ |  | binding result [14]: binds; binding result [13]: binds
B7 | binds | binds | 25.7 ± 9.66 nM |  |  | 0.005 s⁻¹ | binding result [12]: binds
